Data on three molecules can be found in patent EP2801619A1 (Fondazione Edmund Mach, dated 2014).

The chains are these.
B2: CURVATURE THYLAKOID1A (CURT1A) of Arabidopsis thaliana, endogenous protein in thylakoid membranes (other)
chain: ASSEETSSIDTNELITDLKEKWDGLENKSTVLIYGGGAIVAVWLSSIVVGAINSVPLLPKVMELVGLGYTGWFVYRYLLFKSSRKELAEDIESLKKKIAGSE
notes: Thylakoid membrane protein as found in plant thylakoids; also called At4g01150

Data set [1] concerns the molecule itself. Kind of data set: quantification of CURT1A crosslinking products from thylakoids of WT and CURT1A-cmyc overexpressors.
Data set [2] concerns the molecule itself. Kind of data set: chemical crosslinking (BS3) of thylakoid proteins, SDS-PAGE and immunoblot, WT against curt1 mutants. Background: A western blot detects proteins with antibodies after separation by electrophoresis.
Data set [3] concerns the target B2. Kind of data set: 2D-BN/SDS-PAGE of thylakoid multiprotein complexes (Fig. 5b).

B1: CURT1A with a C-terminal cmyc tag, expressed in curt1a-2 or WT plants (other)
chain: ASSEETSSIDTNELITDLKEKWDGLENKSTVLIYGGGAIVAVWLSSIVVGAINSVPLLPKVMELVGLGYTGWFVYRYLLFKSSRKELAEDIESLKKKIAGSE
notes: Coding region under the 35S promoter; also called CURT1A-cmyc; cmyc-tagged CURT1A; not shown: C-terminal cmyc tag from vector pPCV812deltaNotI-Lola
For B1, the binding result in data set [1] was “binds”. As to B2, the binding result in data set [2] is on record as “binds”.

B3: CURVATURE THYLAKOID1C (CURT1C) of Arabidopsis thaliana, endogenous protein in thylakoid membranes (other)
chain: ASGESSDSSTDLDVVSTIQNVWDKSEDRLGLIGLGFAGIVALWASLNLITAIDKLPVISSGFELVGILFSTWFTYRYLLFKPDRQELSKIVKKSVADILGQ
notes: Thylakoid membrane protein as found in plant thylakoids; also called At1g52220
B3: the binding result in data set [3] is “binds”.
